Assay [1] concerns the target Rai14 (retinoic acid induced protein 14) (rat (endogenous in testis)) (UniProt Q5U312). The experiment in a line: co-IP; testis lysates (800 µg protein) of rats 12 hr after a single dose of adjudin (50 mg/kg b.w., by gavage); anti-Rai14 IgG as precipitating antibody, blot with anti-actin antibody; compared with 0 hr.
For assay [2] the target is unchanged. As to the kind of experiment: co-IP; testis lysates (800 µg protein) of rats 48 hr after a single dose of adjudin (50 mg/kg b.w., by gavage); anti-Rai14 IgG as precipitating antibody, blot with anti-actin antibody; compared with 0 hr.

Chain of UniProt Q5U312 (Q5U312 whole entry): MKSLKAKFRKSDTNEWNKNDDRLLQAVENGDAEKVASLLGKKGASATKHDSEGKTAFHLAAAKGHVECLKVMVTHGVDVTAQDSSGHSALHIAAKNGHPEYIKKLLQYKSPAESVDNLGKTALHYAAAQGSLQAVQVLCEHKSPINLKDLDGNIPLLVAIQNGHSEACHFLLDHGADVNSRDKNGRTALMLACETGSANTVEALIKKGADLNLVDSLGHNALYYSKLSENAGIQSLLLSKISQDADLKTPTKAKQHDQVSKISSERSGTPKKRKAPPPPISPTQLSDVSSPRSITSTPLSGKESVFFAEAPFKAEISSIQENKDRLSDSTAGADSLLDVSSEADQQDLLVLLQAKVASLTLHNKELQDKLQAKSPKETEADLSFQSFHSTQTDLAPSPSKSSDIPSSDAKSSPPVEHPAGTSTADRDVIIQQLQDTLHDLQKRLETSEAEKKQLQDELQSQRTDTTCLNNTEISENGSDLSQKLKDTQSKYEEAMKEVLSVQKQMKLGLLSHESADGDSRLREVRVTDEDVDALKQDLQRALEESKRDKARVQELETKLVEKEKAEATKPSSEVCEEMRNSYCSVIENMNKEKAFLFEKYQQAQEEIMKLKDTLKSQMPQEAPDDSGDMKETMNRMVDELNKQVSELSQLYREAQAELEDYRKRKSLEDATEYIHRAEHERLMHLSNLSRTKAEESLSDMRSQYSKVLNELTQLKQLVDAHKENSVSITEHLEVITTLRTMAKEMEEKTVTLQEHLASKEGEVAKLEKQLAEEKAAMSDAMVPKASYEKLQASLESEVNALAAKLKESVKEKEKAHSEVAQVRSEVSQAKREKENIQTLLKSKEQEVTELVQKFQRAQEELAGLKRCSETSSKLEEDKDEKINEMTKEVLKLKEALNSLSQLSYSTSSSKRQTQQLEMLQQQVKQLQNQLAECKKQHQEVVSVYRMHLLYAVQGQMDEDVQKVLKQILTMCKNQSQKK

“actin (from UniProt P60711 1-375) (natural protein)”: the percent reduction of the Rai14-actin co-IP against 0 hr in assay [1] stood at 35%. In assay [2], this substance gave a percent loss of the Rai14-actin co-IP against 0 hr of 90%.
